In patent US7829082B2, “Catheter composition and uses thereof” (Genentech, Inc., priority 2001, dated 2010):

Assays:
[1] = biological target: T1, in vitro clot consisting of plasminogen and fibrin (Homo sapiens, UniProt P00747+P02671+P02675+P02679); test: Purified clot lysis activity for rt-PA; assay type: biochemical
T1 construct: Plasminogen kept frozen at or below −60° C. until use; purchased Biocell (fibrinogen); Calbiochem (thrombin)
Description: (7) Purified clot lysis activity for rt-PA. […] Samples were diluted to assay range (200-1000 ng/mL) in two concentrations with diluent. Dilutions were performed the day before the assay and diluted samples were stored at 2-8° C. until analysis the next day. rt-PA reference material was diluted similarly as an internal reference.
2. Purified Clot Lysis Test (Microcentrifugal Analyzer (Test 1) and Plate Reader (Test 2)):
The potency of the alteplase t-PA protein was assessed by the purified clot lysis assay described below. Samples were diluted to assay range (200-1000 ng/mL) in three or two concentrations with diluent. Dilutions were performed the day before the assay and diluted samples were stored at 2-8° C. until analysis the next day. Rt-PA reference material was diluted similarly as an internal reference.
The assay works as follows: Reagents are substances added to a solution of another substance to participate in a chemical reaction. In this case, contents of boat 1 will react with contents of boat 2 to form a standardized clot. […] As the clot breaks apart, there is a change in the absorbance (light) characteristics. The absorbance is plotted versus time. […]
The endpoint (lysis time) may be determined by a computer program or manually. For automatic calculation by computer, the endpoint is the time required to lyse the clot, which is determined automatically. For manual endpoint determination, the endpoint is defined as the first time point below 0.03 absorbance units where the change is less than 0.003 abs unit. Specifically, for manual determination, the endpoint was determined from the absorbance time data. The first absorbance point less than 0.0300 was located. The endpoint was determined as the time of the first absorbance value less than 0.0300 if the change in absorbance between the current absorbance and the subsequent absorbance was less than 0.0030. If the delta absorbance was greater than 0.0030, one moved to the next absorbance reading and determined the delta absorbance. […]
The mean lysis time for each standard curve point was calculated. […]

[2] = 2 mg of alteplase or 10,000 U of urokinase, dwell 2 hours, up to two treatments; p=0.013; Haire et al.; cited from earlier work
[3] = Visual inspection of alteplase diluted in NS; assay type: physicochemical
Description: Alteplase (2 mg/vial rt-PA) was diluted to a concentration of 0.01, 0.025, 0.05, and 0.1 mg/mL final protein concentration in 0.9% NaCl (Normal Saline, NS)-containing IV bags (Baxter and/or Abbott, 250 mL). Specifically, rt-PA, protein bulk, was diluted to 1 mg/mL (50-mg vial formulation equivalent, 0.004% TWEEN 80™ surfactant) with filtered MILLI-Q™ water, or a 100-mg vial rt-PA was reconstituted to 1 mg/mL (0.008-0.011% TWEEN 80™ surfactant) with Sterile Water for Injection, USP (SWFI) using a 60-cc BD syringe and an 18 G needle directly inserted into the rubber septum of the vial at the center of the cake. The vial was gently mixed by slow inversions or rolling action until the cake was totally dissolved. IV diluent (0.9% NaCl, NS) was withdrawn and replaced with the same amount of the reconstituted or diluted 1 mg/mL rt-PA as follows:
After dilution into the IV bags (n=2 for each concentration), the bags were gently mixed by inversion (about 20-24 times). A 10-mL aliquot was withdrawn from the inlet port of the IV bag using a 10-cc BD syringe and 22 G needle. An aliquot (t=0) was dispensed directly into a 20-cc Type I clear glass vial for visual inspection. […]
Each aliquot was examined under a light box equipped with a black and white background. […] The color and clarity of the aliquots were recorded accordingly.

T1 sequence (P00747 20-810 limits assumed): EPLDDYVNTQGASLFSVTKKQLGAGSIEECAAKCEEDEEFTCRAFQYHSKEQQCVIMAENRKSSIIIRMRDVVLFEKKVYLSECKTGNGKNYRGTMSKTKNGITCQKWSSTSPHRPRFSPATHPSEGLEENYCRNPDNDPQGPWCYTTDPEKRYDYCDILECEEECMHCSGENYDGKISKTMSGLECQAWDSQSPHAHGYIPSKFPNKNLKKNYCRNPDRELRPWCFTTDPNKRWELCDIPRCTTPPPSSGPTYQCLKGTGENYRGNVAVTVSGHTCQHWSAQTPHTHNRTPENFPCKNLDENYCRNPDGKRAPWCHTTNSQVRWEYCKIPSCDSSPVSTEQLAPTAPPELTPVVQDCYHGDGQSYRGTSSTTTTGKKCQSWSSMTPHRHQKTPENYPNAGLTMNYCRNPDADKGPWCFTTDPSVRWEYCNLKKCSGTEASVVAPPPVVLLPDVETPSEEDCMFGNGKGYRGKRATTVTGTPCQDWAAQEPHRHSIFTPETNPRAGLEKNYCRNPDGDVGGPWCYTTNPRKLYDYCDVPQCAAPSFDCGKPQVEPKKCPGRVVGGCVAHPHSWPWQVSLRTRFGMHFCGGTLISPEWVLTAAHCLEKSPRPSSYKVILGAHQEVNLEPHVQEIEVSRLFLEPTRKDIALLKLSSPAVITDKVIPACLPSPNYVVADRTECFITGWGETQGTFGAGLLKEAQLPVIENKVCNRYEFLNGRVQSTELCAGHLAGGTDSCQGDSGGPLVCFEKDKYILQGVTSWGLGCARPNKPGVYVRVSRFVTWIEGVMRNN
T1 sequence (P02671 36-629 limits assumed): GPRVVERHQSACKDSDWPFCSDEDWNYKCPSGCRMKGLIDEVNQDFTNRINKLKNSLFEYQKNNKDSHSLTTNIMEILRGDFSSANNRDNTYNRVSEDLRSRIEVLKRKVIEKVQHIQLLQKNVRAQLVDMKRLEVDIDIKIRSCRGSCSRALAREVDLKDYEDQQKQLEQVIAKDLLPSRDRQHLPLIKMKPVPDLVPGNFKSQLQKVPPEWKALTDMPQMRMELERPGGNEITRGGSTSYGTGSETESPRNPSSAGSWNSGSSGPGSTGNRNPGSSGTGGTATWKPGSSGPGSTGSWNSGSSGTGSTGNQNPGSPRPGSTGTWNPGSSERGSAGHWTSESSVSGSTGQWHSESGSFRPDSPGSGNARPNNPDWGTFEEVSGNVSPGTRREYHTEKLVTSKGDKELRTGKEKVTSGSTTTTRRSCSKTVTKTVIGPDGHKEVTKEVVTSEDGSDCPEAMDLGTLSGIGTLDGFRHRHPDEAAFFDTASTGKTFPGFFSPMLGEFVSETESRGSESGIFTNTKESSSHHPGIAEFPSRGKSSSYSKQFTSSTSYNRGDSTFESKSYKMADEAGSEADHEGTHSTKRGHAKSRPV
T1 sequence (P02675 45-491 limits assumed): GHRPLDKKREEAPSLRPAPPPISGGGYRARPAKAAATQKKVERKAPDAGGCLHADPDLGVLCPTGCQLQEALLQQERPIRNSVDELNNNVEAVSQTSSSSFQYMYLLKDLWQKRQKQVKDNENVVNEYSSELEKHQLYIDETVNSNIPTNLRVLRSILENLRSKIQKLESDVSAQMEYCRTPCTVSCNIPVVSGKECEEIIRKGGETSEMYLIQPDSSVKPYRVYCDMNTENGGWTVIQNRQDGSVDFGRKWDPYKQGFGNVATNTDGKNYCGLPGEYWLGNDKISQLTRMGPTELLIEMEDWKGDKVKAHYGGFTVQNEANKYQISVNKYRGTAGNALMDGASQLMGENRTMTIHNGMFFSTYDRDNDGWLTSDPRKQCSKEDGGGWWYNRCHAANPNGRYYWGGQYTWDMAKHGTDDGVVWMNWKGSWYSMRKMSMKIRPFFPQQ
T1 sequence (P02679 27-437 isoform P02679-2 limits assumed): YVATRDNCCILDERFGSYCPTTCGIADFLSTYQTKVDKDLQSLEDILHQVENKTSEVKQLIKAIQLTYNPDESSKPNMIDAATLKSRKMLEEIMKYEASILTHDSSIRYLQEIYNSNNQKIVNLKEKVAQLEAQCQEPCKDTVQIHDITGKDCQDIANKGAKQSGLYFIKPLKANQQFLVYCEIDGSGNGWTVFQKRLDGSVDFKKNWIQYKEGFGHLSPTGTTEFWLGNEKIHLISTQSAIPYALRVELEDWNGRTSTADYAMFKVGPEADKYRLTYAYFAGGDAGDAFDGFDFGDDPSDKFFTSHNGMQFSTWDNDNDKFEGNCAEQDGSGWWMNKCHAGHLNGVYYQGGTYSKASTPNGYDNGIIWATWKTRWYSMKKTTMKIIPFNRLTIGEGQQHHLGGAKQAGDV

Row | Substance | Lytic activity in clot lysis effectiveness test ([1]; diluted down to 0.01 mg/mL in normal saline) | Lytic activity after storage ([1]; diluted to 0.01, 0.02, and 0.05% mg/mL in 0.9% NaCl IV bags, after 24 hours of storage at ambient conditions) | Specific activities by the clot-lysis activity assay ([1]; fractions collected over 24 hours, all concentrations in NS, in the majority of cases) | Catheters with function restored [2] | Visual inspection ([3]; 0.1 mg/mL in NS, immediately after dilution and throughout the infusion period) | Visual inspection ([3]; diluted to 0.01, 0.025, and 0.05 mg/mL with NS, initially and after 24 hours of infusion (no filter) at room temperature)
1 | alteplase t-PA: tissue plasminogen activator in a native form such as ACTIVASE® alteplase t-PA; in Example 7 diluted in 0.9% NaCl | lytically active | lytically active | greater than 90% | 89% | slightly cloudy solution | colorless, clear to slightly opalescent solutions
2 | urokinase |  |  |  | 59% |  | 
